Data on one molecule can be found in patent US7407939B2, “Protein kinase inhibitors comprising ATP mimetics conjugated to peptides or peptidomimetics” (CureGenics Ltd., priority 2001, dated 2008).

This assay concerns PC-3 cells. Put plainly: ssDNA apoptosis ELISA (induction of apoptosis in prostate cancer cells). The settings on record: 50 μM, optical density of treated divided by untreated cells. The format is cell-based. As to the method:
Cells were assayed for Apoptosis using the ssDNA Apoptosis ELISA kit (Chemicon International Inc.). Cells were seeded in 96-well plates (5000 cells/well) and treated with different concentrations of the inhibitors. At different time point, plates were centrifuges at 200 g for 5 min, medium was removed and the cells were fixed with 80% methanol in PBS for 30 min at room temperature. Plates were dried by floating in a waterbath at 37° C. for 20 minutes. 50 μl of Formamide was added to each well and incubate at room temperature for 10 min. Plates were heated to 75° C. in a circulating waterbath for 10 min, cooled in refrigerator for 5 min, and then formamide was removed. […] Plates were monitored for colour development by ABTS using microplate reader at 405 nm.
DNA in apoptotic cells is sensitive to denaturation by formamide in contrast to necrotic cells. […] The specific denaturation was detected with monoclonal antibody to single stranded DNA. Using ssDNA Apoptosis ELISA kit (Chemicon International, Inc.) chimeric compounds were analyzed for their potential to induce apoptosis in PC-3 cells compared to TRAIL (TNF-related apoptosis-inducing ligand), a known apoptotic agent (R&D Systems, Inc.). Results are presented in values of apoptotic index which is calculated by dividing the optical density of treated and untreated cells.
In general terms: In an ELISA, binding on a coated surface is turned into a signal by an enzyme label.

B1: TRAIL: TNF-related apoptosis-inducing ligand, a known apoptotic agent (R&D Systems, Inc.) (protein, UniProt P50591 1-281, looked up)
Tumor necrosis factor ligand …: MAMMEVQGGPSLGQTCVLIVIFTVLLQSLCVAVTYVYFTNELKQMQDKYSKSGIACFLKEDDSYWDPNDEESMNSPCWQVKWQLRQLVRKMILRTSEETISTVQEKQQNISPLVRERGPQRVAAHITGTRGRSNTLSSPNSKNEKALGRKINSWESSRSGHSFLSNLHLRNGELVIHEKGFYYIYSQTYFRFQEEIKENTKNDKQMVQYIYKYTSYPDPILLMKSARNSCWSKDAEYGLYSIYQGGIFELKENDRIFVSVTNEHLIDMDHEASFFGAFLVG
Turning to B1, the “Apoptotic index (48 hours)” value stood at 2.3.
